Target: gp130 (human (endogenous in TF-1)) (UniProt P40189)
Sequence (P40189 23-918): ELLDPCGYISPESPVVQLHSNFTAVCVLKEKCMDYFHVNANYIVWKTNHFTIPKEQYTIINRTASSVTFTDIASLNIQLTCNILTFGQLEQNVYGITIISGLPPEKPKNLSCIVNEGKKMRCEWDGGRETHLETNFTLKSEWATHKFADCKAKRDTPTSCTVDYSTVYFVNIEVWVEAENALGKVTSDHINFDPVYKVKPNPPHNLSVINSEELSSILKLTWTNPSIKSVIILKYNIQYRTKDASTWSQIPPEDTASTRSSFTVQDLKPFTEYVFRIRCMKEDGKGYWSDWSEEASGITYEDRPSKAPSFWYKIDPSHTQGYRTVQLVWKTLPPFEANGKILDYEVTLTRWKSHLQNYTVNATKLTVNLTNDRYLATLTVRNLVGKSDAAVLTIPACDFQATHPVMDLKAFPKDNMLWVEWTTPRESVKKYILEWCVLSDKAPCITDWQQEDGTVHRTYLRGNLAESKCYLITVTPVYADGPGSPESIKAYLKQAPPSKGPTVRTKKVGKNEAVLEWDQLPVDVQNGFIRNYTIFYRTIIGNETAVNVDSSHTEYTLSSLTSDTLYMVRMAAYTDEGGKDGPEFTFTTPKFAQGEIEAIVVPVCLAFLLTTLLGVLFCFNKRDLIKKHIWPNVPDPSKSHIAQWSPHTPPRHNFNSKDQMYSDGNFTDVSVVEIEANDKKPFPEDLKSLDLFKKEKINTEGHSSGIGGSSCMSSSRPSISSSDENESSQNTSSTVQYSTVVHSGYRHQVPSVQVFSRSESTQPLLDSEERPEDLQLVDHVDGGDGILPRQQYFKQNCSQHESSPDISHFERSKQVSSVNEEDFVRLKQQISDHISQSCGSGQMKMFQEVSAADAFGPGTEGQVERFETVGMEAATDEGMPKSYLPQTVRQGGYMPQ

Chain of LIF with truncation of the N-terminal region (P15018 23-202): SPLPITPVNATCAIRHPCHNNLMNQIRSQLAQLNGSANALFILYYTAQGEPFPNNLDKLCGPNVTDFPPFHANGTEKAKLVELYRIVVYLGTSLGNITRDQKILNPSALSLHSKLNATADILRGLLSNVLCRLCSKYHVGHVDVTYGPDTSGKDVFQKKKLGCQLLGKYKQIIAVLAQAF

Row | Substance | TF-1 cell proliferation, fold change of EC50 against wild-type LIF | TF-1 cell proliferation activity against wild-type LIF
1 | LIF 3E (R37E, H38E and H41E) (from UniProt P15018 23-202) (ligand) | 4 fold | 
2 | LIF with truncation of the N-terminal region (from UniProt P15018 23-202) (ligand) |  | 1 fold
3 | LIF 2E (R37E and H38E) (from UniProt P15018 23-202) (ligand) | 3 fold | 

Source: PMC11847480
